Each block holds one binder with its values, some of them ahead of it.
Key:
Assay in all cases: holdup assay
Parameters in all cases: key: below the threshold = too weak to quantify, mostly under pKd 3.1 to 4
[1] = target: AHNAK1, Q09666
[2] = target: T1, ARHGEF11, O15085
T1 sequence (O15085 42-136, limits assumed, looked up): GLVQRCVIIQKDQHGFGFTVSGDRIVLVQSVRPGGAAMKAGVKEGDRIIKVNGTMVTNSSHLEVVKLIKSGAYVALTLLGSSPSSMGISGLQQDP

[3] = target: T2, DFNB31_2, Q9P202
T2 sequence (Q9P202 274-371, limits assumed, looked up): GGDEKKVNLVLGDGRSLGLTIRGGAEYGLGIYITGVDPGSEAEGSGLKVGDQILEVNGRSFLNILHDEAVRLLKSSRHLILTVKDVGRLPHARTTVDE

[4] = target: GRASP, Q7Z6J2
[5] = target: T3, GRIP1_2, Q9Y3R0
T3 sequence (Q9Y3R0 145-248, limits assumed, looked up): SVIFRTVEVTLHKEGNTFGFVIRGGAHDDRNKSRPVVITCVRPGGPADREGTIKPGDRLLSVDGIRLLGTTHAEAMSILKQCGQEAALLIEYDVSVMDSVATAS

[6] = target: GRIP2_3, Q9C0E4
[7] = target: HTRA1, Q92743
[8] = target: Inadl_10, Q8NI35
[9] = target: Inadl_3, Q8NI35
[10] = target: Inadl_4, Q8NI35
[11] = target: Inadl_5, Q8NI35
[12] = target: Inadl_8, Q8NI35
[13] = target: LAP2, Q96RT1
[14] = target: T4, LIN7B, Q9HAP6
T4 sequence (Q9HAP6 88-185, limits assumed, looked up): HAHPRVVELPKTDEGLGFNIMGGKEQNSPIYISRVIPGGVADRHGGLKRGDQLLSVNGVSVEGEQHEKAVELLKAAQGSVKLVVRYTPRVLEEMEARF

[15] = target: T5, LNX2_3, Q8N448
T5 sequence (Q8N448 463-564, limits assumed, looked up): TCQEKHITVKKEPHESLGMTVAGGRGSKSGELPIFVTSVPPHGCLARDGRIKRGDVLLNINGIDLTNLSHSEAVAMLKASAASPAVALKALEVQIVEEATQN

[16] = target: MAGI3_2, Q5TCQ9
[17] = target: PARD3_3, Q8TEW0
[18] = target: T6, PDZD2_2, O15018
T6 sequence (O15018 329-429, limits assumed, looked up): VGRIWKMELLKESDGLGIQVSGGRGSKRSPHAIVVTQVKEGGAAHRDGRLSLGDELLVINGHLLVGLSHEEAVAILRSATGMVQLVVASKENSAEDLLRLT

[19] = target: T7, PDZRN3_1, Q9UPQ7
T7 sequence (Q9UPQ7 244-349, limits assumed, looked up): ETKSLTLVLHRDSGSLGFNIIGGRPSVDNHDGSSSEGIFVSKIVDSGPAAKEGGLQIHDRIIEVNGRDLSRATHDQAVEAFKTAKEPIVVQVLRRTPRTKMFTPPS

[20] = target: PICK1, Q9NRD5
[21] = target: T8, PTPN13_1, Q12923
T8 sequence (Q12923 1088-1188, limits assumed, looked up): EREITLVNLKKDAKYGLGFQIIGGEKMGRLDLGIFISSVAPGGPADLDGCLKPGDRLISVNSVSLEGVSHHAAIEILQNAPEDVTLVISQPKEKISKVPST

[22] = target: SCRIB_2, Q14160
[23] = target: T9, SHANK1, Q9Y566
T9 sequence (Q9Y566 658-767, limits assumed, looked up): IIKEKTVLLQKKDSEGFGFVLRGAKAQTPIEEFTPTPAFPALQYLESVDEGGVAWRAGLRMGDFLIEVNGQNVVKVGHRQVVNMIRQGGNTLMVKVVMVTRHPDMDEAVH

[24] = target: T10, SNTB1, Q13884
T10 sequence (Q13884 107-205, limits assumed, looked up): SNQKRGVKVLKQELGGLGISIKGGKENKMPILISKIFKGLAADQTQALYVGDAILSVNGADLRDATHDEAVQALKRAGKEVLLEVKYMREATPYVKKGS

[25] = target: TJP2_1, Q9UDY2
[26] = target: T11, TX1BP3, O14907
T11 sequence (O14907 10-122, limits assumed, looked up): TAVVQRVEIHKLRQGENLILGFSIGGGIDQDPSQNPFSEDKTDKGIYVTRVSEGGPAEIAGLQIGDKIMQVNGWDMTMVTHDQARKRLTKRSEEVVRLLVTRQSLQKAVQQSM

[27] = plain residues with an end cap or a label only (N-terminal biotin on a linker: ado-ado)
[28] = plain residues with an end cap or a label only (N-terminal biotin on a linker: ahx)

HTRA1, Q92743, sequence (Q92743 360-477): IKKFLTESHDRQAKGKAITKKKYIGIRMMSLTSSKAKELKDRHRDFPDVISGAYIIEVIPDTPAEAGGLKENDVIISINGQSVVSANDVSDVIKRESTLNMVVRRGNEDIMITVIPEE
MAGI3_2, Q5TCQ9, sequence (Q5TCQ9 398-503): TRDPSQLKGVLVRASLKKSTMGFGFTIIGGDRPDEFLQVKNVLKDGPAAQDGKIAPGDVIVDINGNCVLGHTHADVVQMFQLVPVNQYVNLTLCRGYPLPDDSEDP
GRASP, Q7Z6J2, sequence (Q7Z6J2 96-193): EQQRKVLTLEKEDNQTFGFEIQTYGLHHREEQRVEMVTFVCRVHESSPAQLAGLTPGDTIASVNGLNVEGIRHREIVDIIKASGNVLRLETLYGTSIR
PARD3_3, Q8TEW0, sequence (Q8TEW0 582-685): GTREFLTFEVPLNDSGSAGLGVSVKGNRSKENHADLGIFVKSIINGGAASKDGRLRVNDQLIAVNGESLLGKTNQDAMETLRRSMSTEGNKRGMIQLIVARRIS
AHNAK1, Q09666, sequence (Q09666 4-100): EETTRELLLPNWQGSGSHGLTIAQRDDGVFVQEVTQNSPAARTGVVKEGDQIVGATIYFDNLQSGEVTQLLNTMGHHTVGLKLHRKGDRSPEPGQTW
PICK1, Q9NRD5, sequence (Q9NRD5 17-115): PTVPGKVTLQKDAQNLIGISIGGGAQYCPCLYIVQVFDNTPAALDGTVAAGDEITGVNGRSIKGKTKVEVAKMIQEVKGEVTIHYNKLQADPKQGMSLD
Inadl_3, Q8NI35, sequence (Q8NI35 359-469): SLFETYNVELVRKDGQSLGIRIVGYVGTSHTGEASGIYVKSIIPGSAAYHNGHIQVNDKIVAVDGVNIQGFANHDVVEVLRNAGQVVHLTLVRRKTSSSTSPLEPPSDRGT
Inadl_4, Q8NI35, sequence (Q8NI35 547-651): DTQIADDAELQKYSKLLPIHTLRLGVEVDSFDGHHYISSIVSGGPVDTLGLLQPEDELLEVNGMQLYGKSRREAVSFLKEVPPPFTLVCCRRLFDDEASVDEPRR
TJP2_1, Q9UDY2, sequence (Q9UDY2 24-128): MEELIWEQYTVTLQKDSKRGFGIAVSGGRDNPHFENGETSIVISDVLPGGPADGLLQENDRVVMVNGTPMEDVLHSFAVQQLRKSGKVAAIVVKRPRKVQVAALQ
LAP2, Q96RT1, sequence (Q96RT1 other isoform, or with tags, fused parts or gaps): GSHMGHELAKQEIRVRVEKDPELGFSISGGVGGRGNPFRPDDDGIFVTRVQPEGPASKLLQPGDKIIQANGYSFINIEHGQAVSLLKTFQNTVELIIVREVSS
Inadl_8, Q8NI35, sequence (Q8NI35 1425-1530): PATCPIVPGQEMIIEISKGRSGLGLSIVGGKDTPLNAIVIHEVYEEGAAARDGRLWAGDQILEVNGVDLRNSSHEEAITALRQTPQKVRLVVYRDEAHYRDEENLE
GRIP2_3, Q9C0E4, sequence (Q9C0E4 238-339): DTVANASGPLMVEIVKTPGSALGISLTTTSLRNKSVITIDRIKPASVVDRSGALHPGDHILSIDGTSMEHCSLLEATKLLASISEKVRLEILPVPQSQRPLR
SCRIB_2, Q14160, sequence (Q14160 857-960): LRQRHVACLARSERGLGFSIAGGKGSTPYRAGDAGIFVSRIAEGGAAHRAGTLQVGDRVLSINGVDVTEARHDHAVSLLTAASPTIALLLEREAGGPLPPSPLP
Inadl_5, Q8NI35, sequence (Q8NI35 673-780): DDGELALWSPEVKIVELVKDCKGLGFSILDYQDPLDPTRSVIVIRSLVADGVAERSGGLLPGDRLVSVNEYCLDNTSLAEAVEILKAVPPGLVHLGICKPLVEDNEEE
Inadl_10, Q8NI35, sequence (Q8NI35 1673-1763): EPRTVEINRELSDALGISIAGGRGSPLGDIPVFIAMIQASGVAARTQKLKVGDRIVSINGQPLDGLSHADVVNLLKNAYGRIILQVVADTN

pKd [1, 27]: below the threshold
pKd [2, 27]: 3.83
pKd [3, 27]: below the threshold
pKd [4, 27]: 4.18
pKd [5, 27]: below the threshold
pKd [6, 27]: below the threshold
pKd [7, 27]: below the threshold
pKd [8, 27]: below the threshold
pKd [9, 27]: below the threshold
pKd [10, 27]: below the threshold
pKd [11, 27]: below the threshold
pKd [12, 27]: 4.23
pKd [13, 27]: below the threshold
pKd [14, 27]: below the threshold
pKd [15, 27]: below the threshold
pKd [16, 27]: 5.16
pKd [17, 27]: below the threshold
pKd [18, 27]: 3.66
pKd [19, 27]: 4.23
pKd [20, 27]: below the threshold
pKd [21, 27]: below the threshold
pKd [22, 27]: below the threshold
pKd [23, 27]: below the threshold
pKd [24, 27]: 4.23
pKd [25, 27]: 3.9
pKd [26, 27]: 4.76
B1: CACNG2, Q9Y698 (peptide)
chain: NTANRRTTPV

pKd [1, 27]: below the threshold
pKd [2, 27]: 4.16
pKd [3, 27]: 3.69
pKd [4, 27]: 3.64
pKd [5, 27]: below the threshold
pKd [6, 27]: below the threshold
pKd [7, 27]: below the threshold
pKd [8, 27]: below the threshold
pKd [9, 27]: below the threshold
pKd [10, 27]: below the threshold
pKd [11, 27]: below the threshold
pKd [12, 27]: 4.36
pKd [13, 27]: below the threshold
pKd [14, 27]: 3.89
pKd [15, 27]: below the threshold
pKd [16, 27]: 3.79
pKd [17, 27]: below the threshold
pKd [18, 27]: 3.75
pKd [19, 27]: 3.53
pKd [20, 27]: 4.18
pKd [21, 27]: below the threshold
pKd [22, 27]: 3.48
pKd [23, 27]: 4.5
pKd [24, 27]: 4.95
pKd [25, 27]: below the threshold
pKd [26, 27]: below the threshold
B2: KLHDC7A, Q5VTJ3 (peptide)
chain: PTPDLPQTRV

pKd [1, 28]: below the threshold
pKd [2, 28]: 4.38
pKd [3, 28]: below the threshold
pKd [4, 28]: 4.56
pKd [5, 28]: below the threshold
pKd [6, 28]: below the threshold
pKd [7, 28]: below the threshold
pKd [8, 28]: 3.61
pKd [9, 28]: below the threshold
pKd [10, 28]: below the threshold
pKd [11, 28]: below the threshold
pKd [12, 28]: below the threshold
pKd [13, 28]: below the threshold
pKd [14, 28]: below the threshold
pKd [15, 28]: below the threshold
pKd [16, 28]: 4.28
pKd [17, 28]: below the threshold
pKd [18, 28]: below the threshold
pKd [19, 28]: 4.16
pKd [20, 28]: below the threshold
pKd [21, 28]: below the threshold
pKd [22, 28]: below the threshold
pKd [23, 28]: 4.62
pKd [24, 28]: below the threshold
pKd [25, 28]: below the threshold
pKd [26, 28]: 4.17
B3: FRMPD1, Q5SYB0 (peptide)
chain: TQKFRASTAL
